Data on 19 sequences can be found in a protein production outcome set (Wang et al. 2014).
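Also: failed if final PepcDB status was selected cloned or expressed and not failed if soluble or beyond.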

The nature of this data set: label from the status in PepcDB records.
On to “AAIILHEIYGINAHIQRAGHEWMTRGFDIYIPALFPHHTPFRYEQQEEAYRHFSANVGFDPAVVTTLLHELRTQYETLIVVGYSVGATLAWLSAASGLCDGVICYYGSRIRQYLHLAPLCPTLVIIARYEPAFDPLAMRQTLEKRPRVQCKMYDARHGFCDADSATFDAALSHQVMDDVSAFIRDI”, for which the protein production result is given as “failed”.
Turning to “AAIRHITTGTYIARIREEYQQTEVKPELQPMKEALARMTDRAEALIAFVTEQKDQELLDFQARRLVEMTAHAVFGHLLMLAANDDDSFRQSAEVYLRYGQAEQEKIDSYVRAFRPEELTFYSRCSRPE”, the protein production result was “not failed”.
“ADGILVVDLKGNIEFCNQQFLKMWGIAPGFIDSHNDTETIQYVLNQLKNPEEFLKQIKELYNNPKQESFDELHFKDGKIFERYSQPHWLDN”: the protein production entry was “failed”.
For “ADWPDRFNLRKPFEKLLYSGSRTGFRLASERSAKQAKGPRKADPDGLFDLSFSDDQQMLVDMLEGFALEVLRPLAHDADAEASLPAELLNQALELGLTHYGVGEVHGGMAGERTTVTTALIAEALAKGDLTLAAALLVPLSAANCIRRWGSPSQQAQWLPAFVSEEGAPLTAIAVNEPSLLFDPQKLATRARRKGSHYLLSGEKCLVLRGLEASRLIVAAKTDEGPALFLVEASAKGVERRAEPAMGLKAGGTARLRLKSVKVPADNRLAAEHFDYRAFLDHASLAWCALALGTGQAALDYVIAYCNEREAFGEPISHRQGVAFMVADIAIELDAMRLMVWRACALAERGQPFQREAYLARLLCAEKAMKIGTDAVQLLGGHGFTKEHPAERWYR”, the protein production entry is “failed”.
To “AEEKKEDEFKTIKIEKLDGGITKLVLNRPDRLNTISPEVLDEIDRAITQLWNDKDTRVIVITGAGDRAFSAGADLGGSIITHPFDFLEHNRKGERVFTRLREIPKPVIAAINGYALGGGLEIAMNCDIRLAKKSAVLGLPEVGLGILPGWSGTQRLVKLVGISRAMQLALTGERITAEEAERWGLVNKVFDDDKFEEEVMNYAKNIAERCAPISMALIKRLINKGGEVPMDIGLEWECTAAGLLFATEDMREGISAFLRKDKPQFKGR” belongs “failed”; to “AEIDTSSIVEMVQGAEDAPVEVIEYASYTCPHCAAFHEGPYKKLKADFIDTGKVRFIYREVYFDRYGLWASMVARCAGPEKFFGISDLIYKGQAEWSRAGGPAEIAEELRKIGRLAGIENDKLEACLGDATKAQTLVAWYQEHATRDDINSTPSFMINGKKVENQAYDGFKALIEAELGN”, “not failed”; to “AEIYNKDGNKVDLYGKAVGLHYFSKGNGENSYGGNGDMTYARLGFKGETQINSDLTGYGQWEYNFQGNNSEGADAQTGNKTRLAFAGLKYADVGSFDYGRNYGVVYDALGYTDMLPEFGGDTAYSDDFFVGRVGGVATYRNSNFFGLVDGLNFAVQYLGKNERDTARRSNGDGVGGSISYEYEGFGIVGAYGAADRTNLQEAQPLGNGKKAEQWATGLKYDANNIYLAANYGETRNATPITNKFTNTSGFANKTQDVLLVAQYQFDFGLRPSIAYTKSKAKDVEGIGDVDLVNYFEVGATYYFNKNMSTYVDYIINQIDSDNKLGVGSDDTVAVGIVYQF”, “not failed”.
In the case of “AEPVLGDDGLYQLDWYLQSFLDLKEDLEGATAKGKRFAILWGLKGCPYCKKLHDVHMRDPAIESYIRDNFEIVHLNHIGAREVTDFDGSKLSEKAFAQAYGIRFTPSLQFFPESADGLAAKKPQDREVARMPGLLEPPEFLAMFKYVREKGYQSM” it was “failed”; in that of “AESLSGLSLKLVKKEPRQLELTWAGSRPRNPGGNLSYELHVLNQDEEWHQMVLEPRVLLTKLQPDTTYIVRVRTLTPLGPGPFSPDHEFRTSPP”, “not failed”; in that of “AGGRERRVAVLFCDLRDFTRIAEHRLPYDTVFLLNRYFEVVGEAVEGSGGVVDKFIGDGALAIFGLKTPLPEACRQALSAAARLSQGIRALNQTFEGELEQPLRLAIGLHAGPAIIGEMGYGQATSLTVVGDTINTASRLEGLAKEHDVELAVSAELVERAGLSFEGHRRLEIGLRGRKATLETWIIGDAAQLSLSLP”, “failed”.
In the case of “AGNRASNQGNSQPQQKYTVMSGTPEKILEHFLETIRLEATLNEATDSVLNDFIMMHCVFMPNTQLCPALVAHYHAQPSQGTEQEKMDYALNNKRRVIRLVLQWAAMYGDLLQEDDVSMAFLEEFYVSVSDDARM” it was “failed”; in that of “AIAAQKISEAHEHIAKAEKYLKTSFMKWKPDYDSAASEYAKAAVAFKNAKQLEQAKDAYLQEAEAHANNRSLFHAAKAFEQAGMMLKDLQRMPEAVQYIEKASVMYVENGTPDTAAMALDRAGKLMEPLDLSKAVHLYQQAAAVFENEERLRQAAELIGKASRLLVRQQKFDEAAASLQKEKSMYKEMENYPTCYKKCIAQVLVQLHRADYVAAQKCVRESYSIPGFSGSEDCAALEDLLQAYDEQDEEQLLRVCRSPLVTYMDNDYAKLAISLKVPGGGGGKKKPSASASAQPQEEEDDEYAGGLC”, “failed”.
As to “AIAASGKRKGLSFDDKKTRLLELFNETCDFYTLKELEKIAPKLKGIITQSVKDVLQSLVDDDLVNSDKCGVQTIYWCLPSEAVAKRQRRLDALQQQLAEKRQKLTALQRQLVQVQAGREDSVERTAVLERLAACEAAWRERQRTLESYLECDPDVLAQRETETKTLIEQANRWTDNLYVIRSYVQRNLGVDLDLFDQQFELKPALQYLE”, the protein production entry is “failed”.
Consider “AIADELNSPLGERAQGASLAHVVWSDPQWLERYPLTFENVLTYFSRSPFYDPTCNNELVRMQMHPELQGEMLYYTQREEELLLGMQGVEYVPLCSSDAHELFIIRKQVRRSADEVHVTNLYYILYGQVYEAPAFSTVLLVRLRQSADFLVRSLGLLRQWLSKKEYGEPGATGHGHEDTLLLQLLRKAQQRNRQL”, for which the protein production result is reported as “failed”.
Take “AIAEAKTLGIATPRKPVLSVSARKLKDNAADWHNLILKWDSLSDKGFTTASSIANLKVSLLSKEKVELESSSPASMEEEEKTNLDYDKGLEALCEELQAILDGLTKIQMKMEKLSSTTKGICELENYHYREESSRPPLFHTWPTAFFYEVSRRLSEAYKKELLLKHTIGAELAHTADRNLSLTYLSMWLHQPYIESNSKLQLESMLLETGHRAL”: the protein production entry is reported as “failed”.
In the case of “AIANSLVRRSAQQLSLWRTYCIKHNASEAASPGRNAGRPNYEEFIGRHQRQAQCSIVVQVSSEKSYEELYNYCSSFGSIMGAHHYCVRQDETLHYILLEYATSDEAAAAIGAGVTNGELSGVPVRSPFLWFRAAGGGRRSPKLVANTAPALLSLDGTRQVDQRHLLGLLRGAADIEEQVQQLYEHTRLNELGIRMRFLAALQVQQAIAGMFPAAQAQPFGSSVNGFGRMGCDLDLILRFDSDMGAKIPLEAAVPSRLVYHTKENLSNGRSQTQRHMECFGDMLHLFLPGVCHVRRILQARVPIIKYHHEHLDLEVDLSMSNLTGFYMSELLYMFGEMDPRVRPLTFTIRRWAQTCGLTNPSPGRWISNFSLTCLVMFFLQQLRQPILPTIGALAKAAEPGDSRVTEDGINCTFTRNVDRLGFRSRNQSSLSELLLQFFEFYSQFDFHNRAISLNEGKPLSKPDHSAMYIVNPLEQLLNVSKNVSLEECERLRIEVRNAAWVLESEVENASVPEGDGQELSCGLLNLFKHPEKAVIRPNMFFKPRMVEVSDLFEQKEAGATSSSTPPTPAITYKSASVRQQVQSIKAATRSELKQLRGSGSSVPTSSPNNRRRS” it was “failed”.
With “AIARTDSSKMTDVESGVANFASSARAGRRNALPDIQSSAATDGTSDLPLKLEALSVKEDAKEKDEKTTQDQLEKPQNEEK”, the protein production result is reported as “failed”.
In the case of “AIASSAIERKSLDPSEEPVDEVLQIPPSLLTCGGCQQNIGDRYFLKAIDQYWHEDCLSCDLCGCRLGEVGRRLYYKLGRKLCRRDYLRLFGQDGLCASCDKRIRAYEMTMRVKDKVYHLECFKCAACQKHFCVGDRYLLINSDIVCEQDIYEWTKINGMI” it was “failed”; in that of “AIASSAPAPGPAPASLTLWDEEDFQGRRCRLLSDCANVCERGGLPRVRSVKVENGVWVAFEYPDFQGQQFILEKGDYPRWSAWSGSSSHNSNQLLSFRPVLCANHNDSRVTLFEGDNFQGCKFDLVDDYPSLPSMGWASKDVGSLKVSSGAWVAYQYPGYRGYQYVLERDRHSGEFCTYGELGTQAHTGQLQSIRRVQH”, “failed”.
